Measured values as given in article PMC7736295 (Cell Discovery, 2020).

B1: Mint1-CID (residues 338-397) [not stated] / CASK-CaMK (residues 1-337) [not stated] (parent)
chain 1: QRYSKEKRDAISLAIKDIKEAIEEVKTRTIRSPYTPDEPKEPIWVMRQDISPTRDCDDQR
chain 2: MADDDVLFEDVYELCEVIGKGPFSVVRRCINRETGQQFAVKIVDVAKFTSSPGLSTEDLKREASICHMLKHPHIVELLETYSSDGMLYMVFEFMDGADLCFEIVKRADAGFVYSEAVASHYMRQILEALRYCHDNNIIHRDVKPHCVLLASKENSAPVKLGGFGVAIQLGESGLVAGGRVGTPHFMAPEVVKREPYGKPVDVWGCGVILFILLSGCLPFYGTKERLFEGIIKGKYKMNPRQWSHISESAKDLVRRMLMLDPAERITVYEALNHPWLKERDRYAYKIHLPETVEQLRKFNARRKLKGAVLAAVSSHKFNSFYGDPPEELPDFSEDPTS

Variants of: B1
Test: ITC
Conditions: with CASK-CaMK (residues 1-337); Mint1-CID mutant titrated into CASK(1-337)

| Kd | Variant |
| --- | --- |
| 270 nM | chain 1 QRYSKEKRDAISLAAKDAKEAAEEVKTRTIRSPYTPDEPKEPIWVMRQDISPTRDCDDQR [chain 1 I15A I18A I22A] |
